# According to patent publication US20180155451A1 (published 2018):
# Molecular target: T1, FcγRIa extracellular domain with C-terminal His tag (human, UniProt P12314 16-292)
# T1 construct: extracellular domain; Expressed in FreeStyle293 cells; used as analyte in Biacore; also called FcgRI; 1a; not shown: His tag at the C terminus
# Experiment: SPR (Biacore), captured antibody, FcγRIa analyte; relative to GpH7-A5/GpH7-B3/GpL16-k0 = 100
# T1 sequence (P12314 16-292): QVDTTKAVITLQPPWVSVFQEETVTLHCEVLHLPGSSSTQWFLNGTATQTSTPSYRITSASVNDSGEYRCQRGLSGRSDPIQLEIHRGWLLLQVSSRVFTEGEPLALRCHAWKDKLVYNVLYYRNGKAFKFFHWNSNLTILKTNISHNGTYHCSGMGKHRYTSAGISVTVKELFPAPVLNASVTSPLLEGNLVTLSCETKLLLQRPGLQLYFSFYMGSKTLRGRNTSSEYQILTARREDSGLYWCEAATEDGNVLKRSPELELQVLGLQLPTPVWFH
row,He/Con_1a,Binder
1,106 % of control,"GpH7-A5/GpH7-B3 variant (S337_09D)/GpL16-k0 (antibody, human IgG1, kappa, Heterodimerized; only the B3 chain altered; also called He Ab S337_09D) heavy 1: not shown heavy 2: not shown light: DIVMTQSPLSLPVTPGEPASISCQASESLVHSNRNTYLHWYLQKPGQSPQLLIYKVSNRFSGVPDRFSGSGSGTDFTLKISRVEAEDVGVYYCSQNTHVPPTFGQGTKVEIERTVAAPSVFIFPPSDEQLKSGTASVVCLLNNFYPREAKVQWKVDNALQSGNSQESVTEQDSKDSTYSLSSTLTLSKADYEKHKVYACEVTHQGLSSPVTKSFNRGEC"
2,106 % of control,"GpH7-A5/GpH7-B3 variant (T335_20W)/GpL16-k0 (antibody, human IgG1, kappa, Heterodimerized; only the B3 chain altered; also called He Ab T335_20W) heavy 1: not shown heavy 2: not shown light: DIVMTQSPLSLPVTPGEPASISCQASESLVHSNRNTYLHWYLQKPGQSPQLLIYKVSNRFSGVPDRFSGSGSGTDFTLKISRVEAEDVGVYYCSQNTHVPPTFGQGTKVEIERTVAAPSVFIFPPSDEQLKSGTASVVCLLNNFYPREAKVQWKVDNALQSGNSQESVTEQDSKDSTYSLSSTLTLSKADYEKHKVYACEVTHQGLSSPVTKSFNRGEC"
3,111 % of control,"GpH7-A5/GpH7-B3 variant (T335_11K)/GpL16-k0 (antibody, human IgG1, kappa, Heterodimerized; only the B3 chain altered; also called He Ab T335_11K) heavy 1: not shown heavy 2: not shown light: DIVMTQSPLSLPVTPGEPASISCQASESLVHSNRNTYLHWYLQKPGQSPQLLIYKVSNRFSGVPDRFSGSGSGTDFTLKISRVEAEDVGVYYCSQNTHVPPTFGQGTKVEIERTVAAPSVFIFPPSDEQLKSGTASVVCLLNNFYPREAKVQWKVDNALQSGNSQESVTEQDSKDSTYSLSSTLTLSKADYEKHKVYACEVTHQGLSSPVTKSFNRGEC"
4,107 % of control,"GpH7-A5/GpH7-B3 variant (T335_15Y)/GpL16-k0 (antibody, human IgG1, kappa, Heterodimerized; only the B3 chain altered; also called He Ab T335_15Y) heavy 1: not shown heavy 2: not shown light: DIVMTQSPLSLPVTPGEPASISCQASESLVHSNRNTYLHWYLQKPGQSPQLLIYKVSNRFSGVPDRFSGSGSGTDFTLKISRVEAEDVGVYYCSQNTHVPPTFGQGTKVEIERTVAAPSVFIFPPSDEQLKSGTASVVCLLNNFYPREAKVQWKVDNALQSGNSQESVTEQDSKDSTYSLSSTLTLSKADYEKHKVYACEVTHQGLSSPVTKSFNRGEC"
5,113 % of control,"GpH7-A5/GpH7-B3 variant (T335_12R)/GpL16-k0 (antibody, human IgG1, kappa, Heterodimerized; only the B3 chain altered; also called He Ab T335_12R) heavy 1: not shown heavy 2: not shown light: DIVMTQSPLSLPVTPGEPASISCQASESLVHSNRNTYLHWYLQKPGQSPQLLIYKVSNRFSGVPDRFSGSGSGTDFTLKISRVEAEDVGVYYCSQNTHVPPTFGQGTKVEIERTVAAPSVFIFPPSDEQLKSGTASVVCLLNNFYPREAKVQWKVDNALQSGNSQESVTEQDSKDSTYSLSSTLTLSKADYEKHKVYACEVTHQGLSSPVTKSFNRGEC"
6,106 % of control,"GpH7-A5/GpH7-B3 variant (Y296_12R)/GpL16-k0 (antibody, human IgG1, kappa, Heterodimerized; only the B3 chain altered; also called He Ab Y296_12R) heavy 1: not shown heavy 2: not shown light: DIVMTQSPLSLPVTPGEPASISCQASESLVHSNRNTYLHWYLQKPGQSPQLLIYKVSNRFSGVPDRFSGSGSGTDFTLKISRVEAEDVGVYYCSQNTHVPPTFGQGTKVEIERTVAAPSVFIFPPSDEQLKSGTASVVCLLNNFYPREAKVQWKVDNALQSGNSQESVTEQDSKDSTYSLSSTLTLSKADYEKHKVYACEVTHQGLSSPVTKSFNRGEC"
7,105 % of control,"GpH7-A5/GpH7-B3 variant (T335_19Q)/GpL16-k0 (antibody, human IgG1, kappa, Heterodimerized; only the B3 chain altered; also called He Ab T335_19Q) heavy 1: not shown heavy 2: not shown light: DIVMTQSPLSLPVTPGEPASISCQASESLVHSNRNTYLHWYLQKPGQSPQLLIYKVSNRFSGVPDRFSGSGSGTDFTLKISRVEAEDVGVYYCSQNTHVPPTFGQGTKVEIERTVAAPSVFIFPPSDEQLKSGTASVVCLLNNFYPREAKVQWKVDNALQSGNSQESVTEQDSKDSTYSLSSTLTLSKADYEKHKVYACEVTHQGLSSPVTKSFNRGEC"
8,106 % of control,"GpH7-A5/GpH7-B3 variant (T335_18N)/GpL16-k0 (antibody, human IgG1, kappa, Heterodimerized; only the B3 chain altered; also called He Ab T335_18N) heavy 1: not shown heavy 2: not shown light: DIVMTQSPLSLPVTPGEPASISCQASESLVHSNRNTYLHWYLQKPGQSPQLLIYKVSNRFSGVPDRFSGSGSGTDFTLKISRVEAEDVGVYYCSQNTHVPPTFGQGTKVEIERTVAAPSVFIFPPSDEQLKSGTASVVCLLNNFYPREAKVQWKVDNALQSGNSQESVTEQDSKDSTYSLSSTLTLSKADYEKHKVYACEVTHQGLSSPVTKSFNRGEC"
9,105 % of control,"GpH7-A5/GpH7-B3 variant (Y296_11K)/GpL16-k0 (antibody, human IgG1, kappa, Heterodimerized; only the B3 chain altered; also called He Ab Y296_11K) heavy 1: not shown heavy 2: not shown light: DIVMTQSPLSLPVTPGEPASISCQASESLVHSNRNTYLHWYLQKPGQSPQLLIYKVSNRFSGVPDRFSGSGSGTDFTLKISRVEAEDVGVYYCSQNTHVPPTFGQGTKVEIERTVAAPSVFIFPPSDEQLKSGTASVVCLLNNFYPREAKVQWKVDNALQSGNSQESVTEQDSKDSTYSLSSTLTLSKADYEKHKVYACEVTHQGLSSPVTKSFNRGEC"
10,107 % of control,"GpH7-A5/GpH7-B3 variant (T335_06M)/GpL16-k0 (antibody, human IgG1, kappa, Heterodimerized; only the B3 chain altered; also called He Ab T335_06M) heavy 1: not shown heavy 2: not shown light: DIVMTQSPLSLPVTPGEPASISCQASESLVHSNRNTYLHWYLQKPGQSPQLLIYKVSNRFSGVPDRFSGSGSGTDFTLKISRVEAEDVGVYYCSQNTHVPPTFGQGTKVEIERTVAAPSVFIFPPSDEQLKSGTASVVCLLNNFYPREAKVQWKVDNALQSGNSQESVTEQDSKDSTYSLSSTLTLSKADYEKHKVYACEVTHQGLSSPVTKSFNRGEC"
11,115 % of control,"GpH7-A5/GpH7-B3 variant (T335_08L)/GpL16-k0 (antibody, human IgG1, kappa, Heterodimerized; only the B3 chain altered; also called He Ab T335_08L) heavy 1: not shown heavy 2: not shown light: DIVMTQSPLSLPVTPGEPASISCQASESLVHSNRNTYLHWYLQKPGQSPQLLIYKVSNRFSGVPDRFSGSGSGTDFTLKISRVEAEDVGVYYCSQNTHVPPTFGQGTKVEIERTVAAPSVFIFPPSDEQLKSGTASVVCLLNNFYPREAKVQWKVDNALQSGNSQESVTEQDSKDSTYSLSSTLTLSKADYEKHKVYACEVTHQGLSSPVTKSFNRGEC"
